Experiments:
[1] = biological target: T1, Human CD39-L1 (NTPDase2, ENTPD2) (Homo sapiens, UniProt Q9Y5L3); assay: ELISA titration on CD39-L1; type: binding; details: result in words
T1 sequence (Q9Y5L3 1-472 isoform Q9Y5L3-2): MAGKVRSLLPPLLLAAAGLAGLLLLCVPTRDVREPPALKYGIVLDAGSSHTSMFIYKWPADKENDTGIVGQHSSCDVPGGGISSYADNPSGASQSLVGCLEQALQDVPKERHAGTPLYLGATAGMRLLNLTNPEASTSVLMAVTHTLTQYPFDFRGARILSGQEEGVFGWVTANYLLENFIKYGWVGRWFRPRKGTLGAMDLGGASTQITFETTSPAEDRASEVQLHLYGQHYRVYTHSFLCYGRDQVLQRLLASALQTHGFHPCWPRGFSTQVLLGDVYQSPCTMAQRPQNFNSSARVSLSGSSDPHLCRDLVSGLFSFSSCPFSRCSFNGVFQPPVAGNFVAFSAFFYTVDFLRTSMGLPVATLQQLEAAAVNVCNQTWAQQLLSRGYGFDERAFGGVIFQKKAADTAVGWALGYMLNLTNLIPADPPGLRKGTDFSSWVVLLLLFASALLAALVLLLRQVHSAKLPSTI
Procedure: Antibody I-394 was tested for binding to recombinant human CD39 isoforms (Rec-huCD39 isoforms) having amino acid sequences shown below were coated in 96-well plate in PBS 1× at 500 ng/ml or 1 μg/ml at 4° C. overnight. Wells were washed in TBS Tween 20, and further saturated 2H at RT in TBS Blocking buffer. Dose range concentration of primary antibody was incubated in TBS blocking buffer for 2 h at RT. Wells were washed in TBS Tween 20. […] Optical density was measured on Enspire™ at OD=450.

allogenic CD4 T cells = assay: Mixed lymphocytes reaction (MLR) with ATP-activated DC; type: cell-based, human; details: MoDC activated with ATP plus antibody; 5 days
Procedure: Briefly, human monocytes were purified from human healthy blood and differentiated into MoDC in presence of GM-CSF and IL-4 during 6 days. Then MoDC were activated in presence of ATP (Sigma, 0.25-1 mM) during 24 hours and DC activation were assessed by analyzing CD80, CD83 and HLA-DR expression by flow cytometry. In some cases, MoDC were preincubated during 1 hours in presence of CD39 inhibitor: […] (Tocris, 250 μM), CD73 inhibitor: APCP (Tocris 50 μM), anti-CD39 blocking antibody I-394 or BY40 (for BY40 see WO2009/095478), or anti-CD73 blocking antibodies. LPS (Invivogen, 10 ng/ml) was used as positive control. To assess resulting effect of ATP-mediated DC activation on CD4 T cells activation, ATP-activated DC were washed and then incubated with allogenic CD4 T cells (ratio 1 MoDC/4 T cells) for a mixed lymphocytes reaction (MLR) during 5 days. T cells activation and proliferation were analyzed through CD25 expression and Cell Trace Violet dilution by flow cytometry (FIG. 8).

I-394: anti-CD39 antibody, VH SEQ ID NO: 6, VL SEQ ID NO: 7; human IgG1 Fc with L234A/L235E/G237A/A330S/P331S
binding to CD39-L1 in ELISA [1]: not | T cells proliferation and activation in MLR (CD25 expression, Cell Trace Violet dilution) (allogenic CD4 T cells): higher T cells proliferation and activation
